The record followed here is paper PMC5095173, “Disulfide-activated protein kinase G Iα regulates cardiac diastolic relaxation and fine-tunes the Frank–Starling response” (Nature Communications, 2016).

Experiment [1] has as its system PKGIα (analogue-sensitive C42S/M438G), cGMP-activated. Put plainly: Chemical genetic phosphoproteomic screen, cGMP-activated PKGIα C42S/M438G versus unactivated control. The class given is biochemical, human PKGIα; substrates in rat heart homogenate. Conditions: for log2 fold changes: Group 1 (cGMP-activated) vs Group 3 (control). The method in brief: (§1)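 Analogue-sensitive human PKGIα mutants (M438G, air-oxidized to disulfide dimer; C42S/M438G, cGMP-activated), expressed in 293-F cells, thiophosphorylate substrates in rat left-ventricle lysate (20 mg ml) using N6-alkylated ATPγS. Thiophosphopeptides are recovered by covalent capture and identified with sites by LC–MS/MS, each compared against an unactivated control.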

Experiment [2] has as its system PKGIα (analogue-sensitive M438G), disulfide-activated. In words: Chemical genetic phosphoproteomic screen, disulfide-activated PKGIα M438G versus unactivated control. Format: biochemical, human PKGIα; substrates in rat heart homogenate. The note with it: for log2 fold changes: Group 2 (disulfide-activated) vs Group 3 (control). The method, boiled down:
as §1

B1: Smpx pT40 (protein, UniProt Q925F0 1-85, looked up)
Small muscular protein: MSKQPISNVRSIQANINIPMGAFRPGAGQPPRRKESTPGTAEGAPATPEEKKPVPGMKKFPGPVVNLSEIQNVKSELKYVPKGEQ
modifications: phosphorylated at T40
Take B1: the log2 fold changes in experiment [1] stood at 0.3577; in experiment [2], 1.906.

B2: Plcg1 pS1233 (protein, UniProt P10686 2-1290, looked up)
1-phosphatidylinositol …: AGVGTPCANGCGPSAPSEAEVLHLCRSLEVGTVMTLFYSKKSQRPERKTFQVKLETRQITWSRGADKIEGSIDIREIKEIRPGKTSRDFDRYQEDPAFRPDQSHCFVILYGMEFRLKTLSLQATSEDEVNMWIKGLTWLMEDTLQAATPLQIERWLRKQFYSVDRNREDRISAKDLKNMLSQVNYRVPNMRFLRERLTDFEQRSGDITYGQFAQLYRSLMYSAQKTMDLPFLETNTLRTGERPELCQVSLSEFQQFLLEYQGELWAVDRLQVQEFMLSFLRDPLREIEEPYFFLDELVTFLFSKENSVWNSQLDAVCPETMNNPLSHYWISSSHNTYLTGDQFSSESSLEAYARCLRMGCRCIELDCWDGPDGMPVIYHGHTLTTKIKFSDVLHTIKEHAFVASEYPVILSIEDHCSIAQQRNMAQHFRKVLGDTLLTKPVDIAADGLPSPNQLKRKILIKHKKLAEGSAYEEVPTSVMYSENDISNSIKNGILYLEDPVNHEWYPHYFVLTSSKIYYSEETSSDQGNEDEEEPKEASGSTELHSSEKWFHGKLGAGRDGRHIAERLLTEYCIETGAPDGSFLVRESETFVGDYTLSFWRNGKVQHCRIHSRQDAGTPKFFLTDNLVFDSLYDLITHYQQVPLRCNEFEMRLSEPVPQTNAHESKEWYHASLTRAQAEHMLMRVPRDGAFLVRKRNEPNSYAISFRAEGKIKHCRVQQEGQTVMLGNSEFDSLVDLISYYEKHPLYRKMKLRYPINEEALEKIGTAEPDYGALYEGRNPGFYVEANPMPTFKCAVKALFDYKAQREDELTFTKSAIIQNVEKQDGGWWRGDYGGKKQLWFPSNYVEEMINPAILEPEREHLDENSPLGDLLRGVLDVPACQIAIRPEGKNNRLFVFSISMPSVAQWSLDVAADSQEELQDWVKKIREVAQTADARLTEGKMMERRKKIALELSELVVYCRPVPFDEEKIGTERACYRDMSSFPETKAEKYVNKAKGKKFLQYNRLQLSRIYPKGQRLDSSNYDPLPMWICGSQLVALNFQTPDKPMQMNQALFMAGGHCGYVLQPSTMRDEAFDPFDKSSLRGLEPCVICIEVLGARHLPKNGRGIVCPFVEIEVAGAEYDSTKQKTEFVVDNGLNPVWPAKPFHFQISNPEFAFLRFVVYEEDMFSDQNFLAQATFPVKGLKTGYRAVPLKNNYSEDLELASLLIKIDIFPAKENGDLSPFSGTSLRERASDASSQLFHVRAREGSFEARYQQPFEDFRISQEHLADHFDSRERRAPRRTRVNGDNRL
modifications: phosphorylated at S1233
As for B2, in experiment [1] (control = PKGIα C42S/M438G), the “log2 fold change cGMP vs Control” value amounted to 4.5. Moreover, the “log2 fold change Disulfide vs Control” value in experiment [2] (control = PKGIα C42S/M438G) is given as 1.819.

B3: Hadhb pS198 (protein, UniProt Q60587 35-475, looked up)
Trifunctional enzyme subunit …: SAPAVQTKSKKTLAKPNLKNIVVVEGVRIPFLLSGTSYKDLMPHDLARAALSGLLYRTNIPKDVVDYIIFGTVIQEVKTSNVAREAALGAGFSDKTPAHTVTMACISSNQAMTTAVGLIASGQCDVVVAGGVELMSDVPIRHSRNMRKMMLDLNKAKTLAQRLSLLTKFRLNFLSPELPAVAEFSTNETMGHSADRLAAAFAVSRMEQDKYALRSHSLAKKAQDEGHLSDIVPFKVPGKDTVSKDNGIRPSSLEQMAKLKPAFIKPYGTVTAANSSFLTDGASAMLIMSEDRALAMGYKPKAYLRDFIYVSQDPKDQLLLGPTYATPKVLEKAGLTMNDIDAFEFHEAFSGQILANFKAMDSDWFAQNYMGRKTKVGAPPLEKFNIWGGSLSLGHPFGATGCRLVMAAANRLRKDGGQYALVAACAAGGQGHAMIVEAYPK
modifications: phosphorylated at S198
Consider B3, for which the log2 fold changes is recorded as 3.435 in experiment [1] and 0.04396 in experiment [2].

B4: Stk10 pS13 (protein, UniProt E9PTG8 1-967, looked up)
Serine/threonine-protein …: MAFANFRRILRLSTFEKRKSREYEHVRRDLDPNDVWEILGELGDGAFGKVYKAKNKETGALAAAKVIETKSEEELEDYIVEIEILATCDHPYIVKLLGAYYYDGKLWIMIEFCPGGAVDAIMLELDRGLTEPQIQVVCRQMLEALNFLHGKRIIHRDLKAGNVLMTLEGDIRLADFGVSAKNLKTLQKRDSFIGTPYWMAPEVVLCETMKDAPYDYKADIWSLGITLIEMAQIEPPHHELNPMRVLLKIAKSDPPTLLTPSKWSTEFRDFLKIALDKNPETRPSAAQLLQHPFVSTVTSNKALRELVAEAKAEVMEEIEDGKEDGSEKDAVSAVPPPVNHTQDSSANGTQPSLNSDKLLQDSSTPLPPSQPQEPVNGPCNQPSGDGSPQNTSPADEVSKNDNGLKVPVPLRKSRPLSVDARIQVTEEKQITDQAENPSSAASKPPKVNQSRPNSSALETLGVETLANGGLELPGSVTPNHSKRASDCSNLSTSESMDYGTSLSADLSLNKETGSLSLKGSKLHNKTLKRTRRFVVDGVEVSITTSKIISEDEKKDEEMRFLRRQELRELRLLQKEEHRNQTQLSTKHELQLEQMHRRFEQEINAKKKFYDVELENLERQQKQQVEKMEQDHSVRRREEAKRIRLEQDRDYARFQEQLKQMKKEVKRSIEKALRKQRQESMRMGQDSHTQKKQRLDRDFVAKQKEDLELAMKKLTAENRREICDKERDCLNKKQELLRDREAALWEMEEHQLQERHQLVKQQLKDQYFLQRHDLLRKHEKEREQMQRYNQRMMEQLKVRQQQEKARLPKIQRSDGKTRMAMYKKSLHINGAGSASEQREKVKQFSQQEEKRQKAERLQQQQKHENQMRDMVAQCESNMNELQQLQNEKCHLLVEHETQKLKALDESHNQSLKEWRDKLRPRKKALEEDLNQKKREQEMFFRLSEEAETRPTTPNRASKFFPYSSGDAS
modifications: phosphorylated at S13
B4: the log2 fold changes in experiment [1] was 0.7023; in experiment [2] it was 0.1825.

B5: Hdlbp pS74 (protein, UniProt Q9Z1A6 2-1268, looked up)
Vigilin: SSVAVLTQESFAEHRSGLVPQQIIVATLNSEEESDPPTYKDAFPPLPEKAACLESAQEPAGAWSNKIRPIKASVITQVFHVPLEERKYKDMNQFGEGEQAKICLEIMQRTGAHLELSLAKDQGLSIMVSGKLDAVMKARKDIVARLQTQASATVPIPKEHHRFVIGKNGEKLQDLELKTATKIQIPRPDDPSNQIKITGTKEGIEKARHEVLLISAEQDKRAVKRLEVEKAFHPFIAGPYNRLVGEIMQETGTRINIPPPSVNRTEIVFTGEKEQLAQAVARIKKIYEEKKKKTTTIAVEVKKSQHKYVIGPKGNSLQEILERTGVSVEIPPSDSISETVILRGEPEKLGQALTEVYAKANSFTVSSVSAPSWLHRFIIGKKGQNLAKITHQMPKVHIEFTEGEDKITLEGPTEDVNVAQEQIEGMVKDLINRMDYVEINIDHKFHRHLIGKSGANINRIKDQYKVSVRIPPDSEKSNLIRIEGDPQGVQQAKRELLELASRMENERTKDLIIEQRFHRTIIGQKGERIREIRDKFPEVIINFPDPAQKSEIVQLRGPKNEVEKCTKYMQKMVADLVENSYSISVPIFKQFHKNIIGKGGANIKKIREESNTKIDLPAENSNSETIVITGKRANCEAARSRILSIQKDLANIAEVEVSIPAKLHNSLIGTKGRLIRSIMEECGGVHIHFPVEGSGSDTVVIRGPSSDVEKAKKQLLHLAEEKQTKSFTVDIRAKPEYHKFLIGKGGGKIRKVRDSTGARIIFPAAEDKDQDLITIIGKEDAVREAQKELEALIQNLDNVVEDYMLVDPRHHRHFVIRRGQVLREIAEEYGGVMVSFPRSGTQSDKVTLKGAKDCVEAAKKRIQEIIEDLEAQVTLECAIPQKFHRSVMGPKGSRIQQITRDYNVQIKFPDREENPVHSVEPSIQENGDEAGEGREAKETDPGSPRRCDIIVISGRKEKCEAAKEALEALVPVTIEVEVPFDLHRYIIGQKGSGIRKMMDEFEVNIHVPAPELQSHTIAITGLAANLDRAKAGLLDRVKELQAEQEDRALRSFKLSVTVDPKYHPKIIGGKGAVITQIRLEHDVNIQFPDKDDGNQPQDQITITGYEKNTEAARDAILKIVGELEQMVSEDVPLDHRVHARIIGARGKAIRKIMDEFKVDIRFPQSGAPDPNCVTVTGLPENVEEAIDHILNLEEEYLADVVDSEALQVYMKPPAHEESKAPSKGFVVRDAPWTSNSSEKAPDMSSSEEIPTFGAQVAPKTLPWGPKR
modifications: phosphorylated at S74
Regarding B5, the results for the log2 fold changes in experiment [1] and in experiment [2] were 3.955 and 0.4352, respectively.

B6: Wbp11 pS600 (protein, UniProt Q5PQQ2 1-641, looked up)
WW domain-binding protein 11: MGRRSTSSTKSGKFMNPTDQARKEARKRELKKNKKQRMMVRAAVLKMKDPKQIIRDMEKLDEMEFNPVQQPQLNEKVLKDKRKKLRETFERILRLYEKENPDIYKELRKLEVEYEQKRAQLSQYFDAVKNAQHVEVESIPLPDMPHAPSNILIQDIPLPGAQPPSILKKTSAYGPPTRAVSILPLLGHGVPRLPPGRKPPGPPPGPPPPQVLQMYGRKVGFALDLPPRRRDEDMLYSPELAQRGHDDDMSSTSEDDGYPEDMDQDKHDDSTEDSDTDRSDAESDGDEFGHRDDSERDNTEEKKSGLSVRFADMPGKSRKKKKNMKELTPLQAMMLRMAGQEIPEEGREVEEFSEEEDDDDSEDSEAEKPSQKQHKEDSHADGSSAASSQQQAPPQAVPPSQIQAPPMPGPPPLGPPPAPPLRPPGPPTGLPPGPPPGAPPFLRPPGMPGIRGPLPRLLPPGPPPGRPPGPPPGPPPGLPPGPPPRGPPPRLPPPAPPGIPPPRPGMMRPPLVPPLGPAPPGLFPPAPLPNPGVLSAPPSLIQRPKADDASAATIEKKATATISAKPQITNPKAEVTRFVPTALRVRRENKGATAVPQRRSEEDSAVPVAKAAPRSGPSVPVSVQTKDDVYEAFMKEMEGLL
modifications: phosphorylated at S600
B6: the log2 fold changes in experiment [1] was 4.049; in experiment [2] it was 2.503.

B7: Acadvl pT513 (protein, UniProt P45953 41-655, looked up)
Very long-chain specific …: ASEATQAVLEKPETLSSDASTREKPARAESKSFAVGMFKGQLTTDQVFPYPSVLNEGQTQFLKELVGPVARFFEEVNDPAKNDSLEKVEEDTLQGLKELGAFGLQVPSELGGLGLSNTQYARLAEIVGMHDLGVSVTLGAHQSIGFKGILLYGTKAQKEKYLPRVASGQALAAFCLTEPSSGSDVASIRSSAVPSPCGKYYTLNGSKIWISNGGLADIFTVFAKTPIKDAATGAVKEKITAFVVERSFGGVTHGLPEKKMGIKASNTSEVYFDGVKVPAENVLGEVGDGFKVAVNILNNGRFGMAATLAGTMKAIIAKAVDHATNRTQFGDKIHNFGVIQEKLARMAILQYVTESMAYMLSANMDQGFKDFQIEAAISKIFGSEAAWKVTDECIQIMGGMGFMKEPGVERVLRDIRIFRIFEGTNDILRLFVALQGCMDKGKELTGLGNALKNPLGNVGLLIGEASKQLRRRTGIGSGLSLSGIVHPELSRSGELAVQALEQFATVVEAKLMKHKKGIVNEQFLLQRLADGAIDLYAMVVVLSRASRSLSEGYPTAQHEKMLCDSWCIEAATRIRENMASLQSNPQQQELFRNFRSISKAMVENGGLVTSNPLRV
modifications: phosphorylated at T513
B7: the results for the log2 fold changes in experiment [1] and in experiment [2] were 3.595 and -0.899, respectively.
